This passage reports Kd, koff and kon results from patent US20120258108A1 (AbbVie / Abbott, published 2012).

Where a chain is given by its changes, count along the chain named. A value given as a limit tells only on which side of the number the result lay.

One assay deals with Recombinant Human DLL4 (human, UniProt Q9NR61 27-524). As to the kind of experiment: SPR (BIACORE). The procedure: (§1) The BIACORE assay (Biacore, Inc, Piscataway, N.J.) determines the affinity of antibodies or DVD-Ig with kinetic measurements of on-rate and off-rate constants. Binding of antibodies or DVD-Ig to a target antigen (for example, a purified recombinant target antigen) was determined by surface plasmon resonance-based measurements with a Biacore® 1000 or 3000 instrument (Biacore® AB, Uppsala, Sweden) using running HBS-EP (10 mM HEPES [pH 7.4], 150 mM NaCl, 3 mM EDTA, and 0.005% surfactant P20) at 25° C. All chemicals were obtained from Biacore® AB (Uppsala, Sweden) or otherwise from a different source as described in the text. For example, approximately 5000 RU of goat anti-mouse IgG, (Fcγ), fragment specific polyclonal antibody (Pierce Biotechnology Inc, Rockford, Ill.) diluted in 10 mM sodium acetate (pH 4.5) is directly immobilized across a CM5 research grade biosensor chip using a standard amine coupling kit according to manufacturer's instructions and procedures at 25 μg/ml. Unreacted moieties on the biosensor surface are blocked with ethanolamine. Modified carboxymethyl dextran surface in flowcell 2 and 4 is used as a reaction surface. Unmodified carboxymethyl dextran without goat anti-mouse IgG in flow cell 1 and 3 is used as the reference surface. For kinetic analysis, rate equations derived from the 1:1 Langmuir binding model are fitted simultaneously to association and dissociation phases of all eight injections (using global fit analysis) with the use of Biaevaluation 4.0.1 software. Purified antibodies or DVD-Ig are diluted in HEPES-buffered saline for capture across goat anti-mouse IgG specific reaction surfaces. Antibodies or DVD-Ig to be captured as a ligand (25 μg/ml) are injected over reaction matrices at a flow rate of 5 μl/min. The association and dissociation rate constants, kₒₙ (M⁻¹ s⁻¹) and koff (s⁻¹) are determined under a continuous flow rate of 25 μl/min. Rate constants are derived by making kinetic binding measurements at different antigen concentrations ranging from 10-200 nM. The equilibrium dissociation constant (M) of the reaction between antibodies or DVD-Igs and the target antigen is then calculated from the kinetic rate constants by the following formula: KD=koff/kₒₙ. Binding is recorded as a function of time and kinetic rate constants are calculated.
On the technique in general: In SPR one partner is held on a chip, and binding of the other changes the refractive index at the surface.

The target in assay [1] is Recombinant Human VEGF 165 (human, UniProt P15692-4 27-191). As to the kind of experiment: SPR (BIACORE). The procedure:
as §1

Usually Kd stands for the concentration at which binding is half-saturated. A word on the koff: it is a measure of how fast the partners let go of each other. As a reminder, the kon is the second-order rate constant of association.

Chain of Recombinant Human VEGF 165 (P15692 other isoform, or with tags, fused parts or gaps limits assumed): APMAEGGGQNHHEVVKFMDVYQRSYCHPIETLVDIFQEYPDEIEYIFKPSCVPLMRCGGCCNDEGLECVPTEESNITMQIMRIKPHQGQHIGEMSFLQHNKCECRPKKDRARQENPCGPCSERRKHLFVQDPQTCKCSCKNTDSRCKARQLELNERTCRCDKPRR
Chain of Recombinant Human DLL4 (Q9NR61 27-524 limits assumed): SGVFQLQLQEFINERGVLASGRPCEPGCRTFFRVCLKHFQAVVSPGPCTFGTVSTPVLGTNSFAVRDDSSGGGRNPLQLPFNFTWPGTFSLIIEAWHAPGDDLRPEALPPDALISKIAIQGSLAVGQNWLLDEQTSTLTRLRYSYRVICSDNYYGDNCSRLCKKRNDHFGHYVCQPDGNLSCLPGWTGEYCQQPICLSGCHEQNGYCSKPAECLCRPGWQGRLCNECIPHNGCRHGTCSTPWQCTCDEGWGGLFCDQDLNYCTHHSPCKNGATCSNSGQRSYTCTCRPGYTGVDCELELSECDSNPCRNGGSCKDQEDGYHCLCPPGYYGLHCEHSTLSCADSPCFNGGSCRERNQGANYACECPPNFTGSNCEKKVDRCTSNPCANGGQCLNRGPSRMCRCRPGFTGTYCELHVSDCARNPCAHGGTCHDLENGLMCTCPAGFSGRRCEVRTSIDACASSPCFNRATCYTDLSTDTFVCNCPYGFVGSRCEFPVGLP

B1: AB299 (antibody, human IgG1, kappa, V domains shown)
VH: EVQLVESGGGLVQPGGSLRLSCAASGFTFSNFPMAWVRQAPGKGLEWVATISSSDGTTYYRDSVKGRFTISRDNSKNTLYLQMNSLRAEDTAVYYCARGYYNSPFAYWGQGTLVTVSS
VL: DIQMTQSPSSLSASVGDRVTITCRASEDIYSNLAWYQQKPGKAPKLLIYDTNNLADGVPSRFSGSGSGTDFTLTISSLQPEDFATYYCQQYNNYPPTFGQGTKVEIKR
notes: CDR-grafted parent antibody
On to B1, for which, in the assay with Recombinant Human DLL4, the dissociation constant (Kd) was 24 nM, the off-rate (koff) worked out at 0.0039 s⁻¹ and the on-rate (kon) was 160000 M⁻¹ s⁻¹.

B2: AB319 (antibody, human IgG1, kappa, V domains shown)
VH: B1 VH with G15A, G16N, R19K, A40S, G42K, S75A, N84D, A88S, V93T, T112V
VL: DIRMTQSPASLSASLGETVNIECRASEDIYSNLAWYQQKPGKAPQLLIYDTNNLADGVPSRFSGSGSGTQFSLKINSLQSEDVATYYCQQYNNYPPTFGGGTKLELKR
notes: CDR-grafted parent antibody
For B2, in the assay with Recombinant Human DLL4, the equilibrium dissociation constant (Kd) is 20 nM, the off-rate constant (koff) is 0.002 s⁻¹ and the association rate constant (kon) was determined as 100000 M⁻¹ s⁻¹.

B3: AB309 (antibody, human IgG1, kappa, V domains shown)
VH: B1 VH with G16R, S75A, T78S
VL: B1 VL with F83V
notes: CDR-grafted parent antibody
As for B3, in the assay with Recombinant Human DLL4, the dissociation constant (Kd) stood at 22 nM, the koff is 0.0028 s⁻¹ and the kon was determined as 130000 M⁻¹ s⁻¹.

B4: AB285 (antibody, human IgG1, kappa, V domains shown)
VH: EVTLRESGPALVKPTQTLTLTCTASGYTFTNYGMNWVRQPPGKGLEWVGWINTYTGEPTYAADFKRRFTFSLDTSKSQAVLTMTNMDPVDTATYYCAKYPHYYGSSHWYFDVWGQGTTVTVSS
VL: DIVMTQSPDSLAVSLGERATINCSASQDISNYLNWYQQKPGQAPKVLIYFTSSLHSGVPDRFSGSGSGTDFTLTISSLQAEDVAVYYCQQYSTVPWTFGGGTKVEIKR
notes: CDR-grafted parent antibody; also called VEGF (AB057)
As to B4, in assay [1], the Kd was less than 0.001 nM, the koff is less than 1e-06 s⁻¹ and the kon was found to be 1e+06 M⁻¹ s⁻¹.

B5: AB331 (antibody, human IgG1, kappa, V domains shown)
VH: QVQLQQSGAELMKPGASVKLSCKVTGGSISSSSYYWGWIKQRPGHGLEWIGDIYYTGSTYYNPSLKSKVTITVDTSSNTFYIQLISLTTEDSAIYYCARQALAMGGGSDKWGQGTLLTVSA
VL: DYLLTQSPAILSVSPGERVSFSCSGQRLGDKYASWYQQRTNGSPRLVIYEDSKRPSGIPSRFSGGNSGDDATLSINSVESEDIADYYCQAWDRDTGVFGAGTKLELKR
notes: CDR-grafted parent antibody
Regarding B5, in the assay with Recombinant Human DLL4, the dissociation constant (Kd) stood at 2.3 nM, the koff is 0.00018 s⁻¹ and the kon worked out at 76000 M⁻¹ s⁻¹.

B6: AB290 (antibody, human IgG1, kappa, V domains shown)
VH: EVTLRESGPALVKPTQTLTLTCTASGFTFSNFPMAWVRQPPGKGLEWVATISSSDGTTYYRDSVKGRFTISRDNSKNQLVLTMTNMDPVDTATYYCARGYYNSPFAYWGQGTTVTVSS
VL: DIVMTQSPDSLAVSLGERATINCRASEDIYSNLAWYQQKPGQAPKLLIYDTNNLADGVPDRFSGSGSGTDFTLTISSLQAEDVAVYYCQQYNNYPPTFGGGTKVEIKR
notes: CDR-grafted parent antibody
Turning to B6, in the assay with Recombinant Human DLL4, the dissociation constant (Kd) is 20 nM, the koff amounted to 0.0039 s⁻¹ and the association rate constant (kon) is 200000 M⁻¹ s⁻¹.

B7: AB307 (antibody, human IgG1, kappa, V domains shown)
VH: EVQLLESGGGLVQPGGSLRLSCAVSGGSISSSSYYWGWIRQAPGKGLEWIGDIYYTGSTYYNPSLKSRVTISVDTSKNTFYLQMNSLRAEDTAVYYCARQALAMGGGSDKWGQGTLVTVSS
VL: EYVLTQSPGTLSLSPGERATLSCSGQRLGDKYASWYQQKPGQSPRLVIYEDSKRPSGIPDRFSGSNSGDDATLTISRLEPEDFAVFYCQAWDRDTGVFGQGTKVEIKR
notes: CDR-grafted parent antibody
For the molecule B7, in the assay with Recombinant Human DLL4, the Kd is 1 nM, the koff amounted to 9.5e-05 s⁻¹ and the on-rate (kon) was 93000 M⁻¹ s⁻¹.

B8: AB306 (antibody, human IgG1, kappa, V domains shown)
VH: B7 VH with L5V, G16R, S76A, T79S
VL: DYQLTQSPSSLSASVGDRVTITCSGQRLGDKYASWYQQKPGKSPKLVIYEDSKRPSGIPSRFSGSNSGDDATLTISSLQPEDVATYYCQAWDRDTGVFGQGTKVEIKR
notes: CDR-grafted parent antibody
B8: in the assay with Recombinant Human DLL4, the dissociation constant (Kd) turned out to be 2.2 nM, the koff amounted to 0.00015 s⁻¹ and the kon was 68000 M⁻¹ s⁻¹.

B9: AB334 (antibody, human IgG1, kappa, V domains shown)
VH: QVQLQQSGAELMKPGASVKLSCKATGFTFSNFPMAWVKQRPGHGLEWVATISSSDGTTYYRDSVKGKFTITRDNSSNTLYIQLISLTTEDSAIYYCARGYYNSPFAYWGQGTLLTVSA
VL: DILMTQSPAILSVSPGERVSFSCRASEDIYSNLAWYQQRTNGAPRLLIYDTNNLADGVPSRFSGGGSGTDFTLSINSVESEDIADYYCQQYNNYPPTFGAGTKLELKR
notes: CDR-grafted parent antibody
Regarding B9, in the assay with Recombinant Human DLL4, the Kd came to 14 nM, the koff was 0.0055 s⁻¹ and the on-rate constant (kon) came out at 390000 M⁻¹ s⁻¹.

B10: AB287 (antibody, human IgG1, kappa, V domains shown)
VH: EVTLRESGPALVKPTQTLTLTCTVSGGSISSSSYYWGWIRQPPGKGLEWIGDIYYTGSTYYNPSLKSRVTISVDTSKNQFVLTMTNMDPVDTATYYCARQALAMGGGSDKWGQGTTVTVSS
VL: DYVLTQSPDSLAVSLGERATINCSGQRLGDKYASWYQQKPGQSPKLVIYEDSKRPSGIPDRFSGSNSGDDATLTISSLQAEDVAVYYCQAWDRDTGVFGGGTKVEIKR
notes: CDR-grafted parent antibody
Regarding B10, in the assay with Recombinant Human DLL4, the Kd worked out at 1.5 nM, the off-rate constant (koff) was 0.00012 s⁻¹ and the kon was 84000 M⁻¹ s⁻¹.

B11: AB316 (antibody, human IgG1, kappa, V domains shown)
VH: EVQLVESGGGLVQPANSLKLSCAVSGGSISSSSYYWGWIRQSPKKGLEWIGDIYYTGSTYYNPSLKSRVTISVDTAKNTFYLQMDSLRSEDTATYYCARQALAMGGGSDKWGQGVLVTVSS
VL: DYRLTQSPASLSASLGETVNIECSGQRLGDKYASWYQQKPGKSPQLVIYEDSKRPSGIPSRFSGSNSGDQASLKINSLQSEDVATYYCQAWDRDTGVFGGGTKLELKR
notes: CDR-grafted parent antibody
With B11, in the assay with Recombinant Human DLL4, the Kd was determined as 1 nM, the koff is 9.2e-05 s⁻¹ and the on-rate constant (kon) is 89000 M⁻¹ s⁻¹.

B12: AB289 (antibody, human IgG1, kappa, V domains shown)
VH: EVQLVQSGTEVKKPGESLKISCKASGFTFSNFPMAWVRQMPGKGLEWVATISSSDGTTYYRDSVKGQFTISRDNSFNTLFLQWSSLKASDTAMYYCARGYYNSPFAYWGQGTMVTVSS
VL: EIVMTQSPATLSVSPGERATLSCRASEDIYSNLAWYQQKPGQAPRLLIYDTNNLADDVPARFSGSGSGTEFTLTISSLQSEDFAVYYCQQYNNYPPTFGQGTRLEIKR
notes: CDR-grafted parent antibody
As for B12, in the assay with Recombinant Human DLL4, the equilibrium dissociation constant (Kd) was 21 nM, the koff came to 0.0055 s⁻¹ and the association rate constant (kon) is 260000 M⁻¹ s⁻¹.

B13: DVD1713 (bispecific antibody, human IgG1, kappa)
heavy: not shown
light: DIVMTQSPDSLAVSLGERATINCRASEDIYSNLAWYQQKPGQAPKLLIYDTNNLADGVPDRFSGSGSGTDFTLTISSLQAEDVAVYYCQQYNNYPPTFGGGTKVEIKRTVAAPEIVMTQSPATLSVSPGERATLSCSASQDISNYLNWYQQKPGQAPRVLIYFTSSLHSDVPARFSGSGSGTEFTLTISSLQSEDFAVYYCQQYSTVPWTFGQGTRLEIKRTVAAPSVFIFPPSDEQLKSGTASVVCLLNNFYPREAKVQWKVDNALQSGNSQESVTEQDSKDSTYSLSSTLTLSKADYEKHKVYACEVTHQGLSSPVTKSFNRGEC
notes: DVD-Ig
With B13, in the assay with Recombinant Human DLL4, the Kd stood at 31 nM, the off-rate (koff) was 0.0029 s⁻¹ and the on-rate (kon) was 92000 M⁻¹ s⁻¹. In assay [1], the dissociation constant Kd was 0.1 nM, the koff stood at 7.7e-05 s⁻¹ and the kon turned out to be 760000 M⁻¹ s⁻¹.
